The target of the test is human GITR on Jurkat/hGITR/hCD20 cells (human) (UniProt Q9Y5U5). Description: flow cytometry on Jurkat/hGITR/hCD20 cells. A general note: Flow cytometry measures light scatter and fluorescence of single cells or particles in a stream.
Chain of human GITR on Jurkat/hGITR/hCD20 cells (human) (Q9Y5U5 26-241): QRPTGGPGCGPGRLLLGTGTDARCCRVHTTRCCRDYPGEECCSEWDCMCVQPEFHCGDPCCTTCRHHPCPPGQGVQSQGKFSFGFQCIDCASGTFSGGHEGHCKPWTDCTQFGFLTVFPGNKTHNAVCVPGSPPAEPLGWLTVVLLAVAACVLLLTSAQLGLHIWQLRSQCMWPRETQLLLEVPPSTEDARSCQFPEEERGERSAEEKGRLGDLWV

With REGN1932, IgG1 isotype control antibody, the Maximum MFI was found to be 39900 MFI.

The record behind these values is US20220153819A1.
